{"source": "paper PMC7540724", "target": "Thermus thermophilus RodA (FLAG-3C-RodA) (Thermus thermophilus) (UniProt Q5SIX3)", "test": "crystal structure", "data": [{"substance": "Thermus thermophilus PBP2 (PBP2-3C-PrtC) (enzyme)", "values": [{"measurement": "stoichiometry N (PBP2 per RodA)", "result": 1}]}]}
